Assay results: the supplement of paper PMC9170038

Tested on: MS2 coat protein
Test: apparent KD of MS2 coat protein; designed switch direction (-1 OFF switch, 1 ON switch): -1; higher = weaker reporter binding
Summary of the method: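 Each step of the titration lasted 0.8–1.5 h at the lowest concentration and 10–20 min at the highest. The protein, SNAP-549-labelled MS2 coat protein, went from 0.7 or 1.5 nM doubling to 3 µM over RNA switches transcribed on Illumina chips by stalled E. coli RNA polymerase. Normalised cluster fluorescence was curve-fitted, and the per-design median over clusters is given as apparent KD.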

[1] = Eterna round: R95, input ligand: FMN 200 uM
[2] = Eterna round: R95, input ligand: microRNA oligo, concentration not stated
[3] = Eterna round: R95, input ligand: none
[4] = input ligand: microRNA oligo, concentration not stated

For “ACGUGAUAUCUGUCGGUGGACAUGAGGAUCACCCAUGUGAGCUUUUUGCUCGUCUUGUAACCCGGUGACAGACCUUC [Encetia] (puzzle: Sensor v3, turn-off variant 1)”, the “apparent KD of MS2 coat protein” value [1] was 22.4 nM, the “apparent KD of MS2 coat protein” value [2] was 213 nM and the “apparent KD of MS2 coat protein” value [3] was 22.3 nM.
In the case of “ACGUGAUAUCUGUCGUUGGACAUGAGGAUCACCCAUGUGAGCUUUUUGCUCGUCUUAUAACCCGGUGACAGACCUUC [Aatbebeed] (puzzle: Sensor v3, turn-off variant 1)”, the “apparent KD of MS2 coat protein” value [1] is reported as 18.4 nM, the “apparent KD of MS2 coat protein” value [2] is reported as 247 nM and the “apparent KD of MS2 coat protein” value [3] is reported as 16.6 nM.
In the case of “ACGUGCACUCAGGAUAUGCUACGCCUGCUCUCAGCAGAAGGGAGUACAUGAGGAUCACCCAUGUGACAUCUGAU [Eternabot (Original) Solution 13] (Eterna round: R97, puzzle: Exclusion 6)”, the “apparent KD of MS2 coat protein” value (input ligand: FMN 200 uM) is reported as 44.3 nM and the “apparent KD of MS2 coat protein” value (input ligand: none) is reported as 26 nM.
With “ACGUUCAUUGAACAUGAGGAUCACCCAUGUGGCCUCCGGGUGGAGGAUAUGCACCAGGCCGAGGUGUAGAAGGCCAUAUACCGA [Riraed] (Eterna round: R96, puzzle: Exclusion NG 3)” the “apparent KD of MS2 coat protein” value (input ligand: FMN 200 uM) was 155 nM, the “apparent KD of MS2 coat protein” value [4] was 49 nM and the “apparent KD of MS2 coat protein” value (input ligand: none) was 81.4 nM.
In the case of “ACUAGAUGAGGAUAUGCACAUUUUAGUGUUCCUCUAGAUUAACAUGAGGAUCACCCAUGUAGAAGGCGUCAUUU [Exclusion 2 - 13] (Eterna round: R96, puzzle: Exclusion 2)”, the “apparent KD of MS2 coat protein” value (input ligand: FMN 200 uM) is reported as 119 nM, the “apparent KD of MS2 coat protein” value [4] is reported as 59.1 nM and the “apparent KD of MS2 coat protein” value (input ligand: none) is reported as 84.2 nM.
“ACUAGAUGAGGAUAUGCACAUUUUAGUGUUCCUCUAGAUUAACAUGAGGAUCACCCAUGUAGAAGGCGUCAUUU [Exclusion 2 - 13] (puzzle: Exclusion 2)” was tested, and the “apparent KD of MS2 coat protein” value [2] was 69.7 nM.
For “ACUAGAUGAGGAUAUGCAUAUUUUCGUGUUCUUCUAGAUUAACAUGAGGAUCACCCAUGUAGAAGGCGUCAAUA [Exclusion 2 - 15] (puzzle: Exclusion 2)”, the “apparent KD of MS2 coat protein” value [2] was 15.4 nM.
With “ACUAGAUGAGGAUAUGCAUGUUUUCAUGUUCUUCUAGAUUAACAUGAGGAUCACCCAUGUAGAAGGCGUCUUUU [Exclusion 2 - 31] (puzzle: Exclusion 2)” the “apparent KD of MS2 coat protein” value [2] was 22.4 nM.
For “ACUCUGCGAGGAUAUACAUGAGGAUCACCCAUGUGCGAGUUACUUGUGAGGUCGGUUGGUAGAAGGCGCGGAGA [Mat - Exclusion 3 - Mod of JL D101] (puzzle: Exclusion 3)”, the “apparent KD of MS2 coat protein” value [2] was 89.7 nM.
For “ACUGGAGCAGGAUAUAUAUGACGUGCUUCGGCACGGUGAGUACAUGAGGAUCACCCAUGUAGAAGGGCUCCAGU [Exclusion 2 (Mod2 of Brourd's E2/9-D2)] (Eterna round: R97, puzzle: Exclusion 2)”, the “apparent KD of MS2 coat protein” value (input ligand: FMN 200 uM) was 88.4 nM and the “apparent KD of MS2 coat protein” value (input ligand: none) was 23.4 nM.
“ACUGGUCGAGGAUAUACAUGAGGAUCACCCAUGUGAUCAGCAGUCCUCGGACUGCAAUGUAGAAGGCGACCAGU [E3/1-A2] (Eterna round: R97, puzzle: Exclusion 3)” was tested, and the “apparent KD of MS2 coat protein” value (input ligand: FMN 200 uM) was 143 nM and the “apparent KD of MS2 coat protein” value (input ligand: none) was 356 nM.
In the case of “ACUUAUAGAGGAUAUACAGUUAAUUACAUGAGGAUCACCCAUGUUCUUCAAUGUAUAUAAGUAGAAGGCUAAGGAA [Ex5 Malc#5 mod] (Eterna round: R97, puzzle: Exclusion 5)”, the “apparent KD of MS2 coat protein” value (input ligand: FMN 200 uM) is reported as 64.3 nM and the “apparent KD of MS2 coat protein” value (input ligand: none) is reported as 16.7 nM.
For “ACUUAUGCGGAGGAUAUUUAACGUAGCGAAAGUAAAGAAGGCCGAACAUGAGGAUCACCCAUGUGGAGGUGUAA [Eternabot (L1) Solution 24] (Eterna round: R97, puzzle: Exclusion 6)”, the “apparent KD of MS2 coat protein” value (input ligand: FMN 200 uM) was 92.5 nM and the “apparent KD of MS2 coat protein” value (input ligand: none) was 23 nM.
“ACUUAUUGAGGAUAUACAGAUUAUUACAUGAGGAUCACCCAUGUUCUUCAAUGUAUAUAUGUAGAAGGCAGAGGAA [JL-ex5-4.24 Malcolm mod] (Eterna round: R97, puzzle: Exclusion 5)” was tested, and the “apparent KD of MS2 coat protein” value (input ligand: FMN 200 uM) was 87.6 nM and the “apparent KD of MS2 coat protein” value (input ligand: none) was 39.7 nM.
“ACUUGCGAUAUGCUCGUCUUAUUUUUGUUGACGUUCUAUACAUGAGGAUCACCCAUGUUUUGUUCCUUGUGCUGGUA [JR_SV3TOV2_Sub072] (puzzle: Sensor v3, turn-off variant 2)” was tested, and the “apparent KD of MS2 coat protein” value [1] was 161 nM, the “apparent KD of MS2 coat protein” value [2] was 170 nM and the “apparent KD of MS2 coat protein” value [3] was 184 nM.
“ACUUGUGUUGAGGAUAUGCGCCGGCUCGCUGGCGCAGAAGGCGGCACAUGAGGAUCACCCAUGUCAGUUCGCGU [salish99_ex6_r004_002] (Eterna round: R97, puzzle: Exclusion 6)” was tested, and the “apparent KD of MS2 coat protein” value (input ligand: FMN 200 uM) was 300 nM and the “apparent KD of MS2 coat protein” value (input ligand: none) was 26.4 nM.
In the case of “ACUUUUUGAGGAUAUACAUUUAUCCACAUGAGGAUCACCCAUGUACAAACAUGUAUUUGUGUAGAAGGCAGAAGAA [JR_Ex5_Sub069] (Eterna round: R97, puzzle: Exclusion 5)”, the “apparent KD of MS2 coat protein” value (input ligand: FMN 200 uM) is reported as 54.5 nM and the “apparent KD of MS2 coat protein” value (input ligand: none) is reported as 60.7 nM.
“AGAAAGCAAGGAUAUACAAGGAAACGACGGAAAGUAGAGAGACAUGAGGAUCACCCAUGUAGAAGGUGCGAGAA [JR_Exclu2_Sub032] (puzzle: Exclusion 2)” was tested, and the “apparent KD of MS2 coat protein” value [1] was 33.8 nM, the “apparent KD of MS2 coat protein” value [2] was 28.7 nM and the “apparent KD of MS2 coat protein” value [3] was 26.5 nM.
“AGAAAUGCCCAUGGCCACAAGCUUUUUGCUUAUCUUACCACAUGAGGAUCACCCAUGUGACAUGGGCUCCUGAUAAU [Teedor] (puzzle: Sensor v3, turn-off variant 2)” was tested, and the “apparent KD of MS2 coat protein” value [1] was 18.5 nM, the “apparent KD of MS2 coat protein” value [2] was 19.4 nM and the “apparent KD of MS2 coat protein” value [3] was 17.1 nM.
With “AGAAAUGCCCAUGGCCGCAAGCCUUUUGCUUGUCUUACCACAUGAGGAUCACCCAUGUGACAUGGGCUCCUGAUAAU [Zace] (puzzle: Sensor v3, turn-off variant 2)” the “apparent KD of MS2 coat protein” value [1] was 12.6 nM, the “apparent KD of MS2 coat protein” value [2] was 10.4 nM and the “apparent KD of MS2 coat protein” value [3] was 11 nM.
In the case of “AGAAUGCGAGGAUAUACAGCAAGAUAGCAAAAGACCCUCCAACAUGAGGAUCACCCAUGUAGAAGGCGCAUUCA [Eternabot (Original) Solution 19] (Eterna round: R97, puzzle: Exclusion 2)”, the “apparent KD of MS2 coat protein” value (input ligand: FMN 200 uM) is reported as 110 nM and the “apparent KD of MS2 coat protein” value (input ligand: none) is reported as 109 nM.
In the case of “AGACGUUAACAGGAUAUGGCCCUGCCGCAAGCGUUAGAAGGGUUGACAUGAGGAUCACCCAUGUGUGAUAGAAG [Eternabot (L1) Solution 95] (Eterna round: R97, puzzle: Exclusion 6)”, the “apparent KD of MS2 coat protein” value (input ligand: FMN 200 uM) is reported as 217 nM and the “apparent KD of MS2 coat protein” value (input ligand: none) is reported as 316 nM.
In the case of “AGAGAAUACUCAGGAUAUCUUAAUAGAAAGAGUAGAGAAGGGAGACAUGAGGAUCACCCAUGUGAAGUCUUGAGACUACAUGGU [Prohibition 28 - Jieux - Exclusion NG 1] (Eterna round: R96, puzzle: Exclusion NG 1)”, the “apparent KD of MS2 coat protein” value [4] is reported as 305 nM.
In the case of “AGAGAAUAGACAGGAUAUGAGAAUAGAUAGAGCUCAGAAGGGUCACAUGAGGAUCACCCAUGUGAAGUCUUGAGGCUGCGUGGA [Prohibition 19 - Jieux - Exclusion NG 1] (Eterna round: R96, puzzle: Exclusion NG 1)”, the “apparent KD of MS2 coat protein” value (input ligand: FMN 200 uM) is reported as 14.6 nM, the “apparent KD of MS2 coat protein” value [4] is reported as 10.9 nM and the “apparent KD of MS2 coat protein” value (input ligand: none) is reported as 18.3 nM.
In the case of “AGAGAGUCAGGAUAUGACGAAGAGAACAUGAGGAUCACCCAUGUAGCUUCGUAAUUAUCGUCAGAAGGGACGAACU [JR_Ex5_Sub089] (Eterna round: R97, puzzle: Exclusion 5)”, the “apparent KD of MS2 coat protein” value (input ligand: FMN 200 uM) is reported as 15.7 nM and the “apparent KD of MS2 coat protein” value (input ligand: none) is reported as 14.2 nM.
With “AGAGAUGCCCAUGGCCGCAAGCUUUUUGCUUGUCUUACCACAUGAGGAUCACCCAUGUGACAUGGGCUCCUUAUAAU [Essoator] (puzzle: Sensor v3, turn-off variant 2)” the “apparent KD of MS2 coat protein” value [1] was 13.5 nM, the “apparent KD of MS2 coat protein” value [2] was 9.99 nM and the “apparent KD of MS2 coat protein” value [3] was 12.1 nM.
With “AGAGUGCUGCGAGGAUAUACAUGAGGAUCACCCAUGUUUUCGUGUGAGGCUUUGCCUCACACGAAGUAGAAGGCGCAGUACUCU [Mat - Exclusion NG 2 - Mod of JL - D31] (Eterna round: R96, puzzle: Exclusion NG 2)” the “apparent KD of MS2 coat protein” value (input ligand: FMN 200 uM) was 7.9 nM, the “apparent KD of MS2 coat protein” value [4] was 8.79 nM and the “apparent KD of MS2 coat protein” value (input ligand: none) was 12.2 nM.
In the case of “AGAUCACAUGAGGAUCACCCAUGUCAGGAUAUCGUCACUGGAGCCUCGGCUCCAGUGACGAGAAGGGAUAAUUA [E1/4-A2] (Eterna round: R97, puzzle: Exclusion 1)”, the “apparent KD of MS2 coat protein” value (input ligand: FMN 200 uM) is reported as 116 nM and the “apparent KD of MS2 coat protein” value (input ligand: none) is reported as 69 nM.
For “AGAUCUUCCGUAAGGAUAUGUGUGAAACAGACGGCACAGAAGGUACAUGAGGAUCACCCAUGUUACGCCGCGUA [Eternabot (L1) Solution 85] (Eterna round: R97, puzzle: Brourd's mod of Exclusion 4)”, the “apparent KD of MS2 coat protein” value (input ligand: FMN 200 uM) was 62.3 nM and the “apparent KD of MS2 coat protein” value (input ligand: none) was 19.1 nM.
“AGAUGCUCAAGUCGACAUGAGGAUCACCCAUGUACAGUUAACGAGGAUAUCCGAGAUAAAUAAUAGGAGAAGGCGUGAUCAUGA [Ex NG3 #3] (Eterna round: R96, puzzle: Exclusion NG 3)” was tested, and the “apparent KD of MS2 coat protein” value (input ligand: FMN 200 uM) was 154 nM, the “apparent KD of MS2 coat protein” value [4] was 78.2 nM and the “apparent KD of MS2 coat protein” value (input ligand: none) was 123 nM.
With “AGAUGGCGAGGAUAUACAUGAGGAUCACCCAUGUGAAGAGAAAGAGUGAGGAAGAAAAGUAGAAGGCGCUGUCA [Mat - Exclusion 3 - Mod of Salish D29] (puzzle: Exclusion 3)” the “apparent KD of MS2 coat protein” value [1] was 897 nM, the “apparent KD of MS2 coat protein” value [2] was 99.7 nM and the “apparent KD of MS2 coat protein” value [3] was 88.2 nM.
